Data from US20230140293A1.

Assays:
Assay in all cases: cell-based or functional assay
[1] = molecular target: CH0505TF Env, Env-pseudotyped virus produced in 293T cells (HIV-1)
[2] = molecular target: HIV-1 Env 426c.DM (N460D.N463D), Env-pseudotyped virus produced in 293S GnTI- cells (Man5-enriched) (HIV-1 clade C strain 426c)
[3] = molecular target: HIV-1 426c.DM (N460D/N463D) Env on Env-pseudotyped virus produced in 293s/GnTI-/- cells (Man5-enrichment) (HIV-1)
[4] = molecular target: CH0505.w4.3 Env, Env-pseudotyped virus produced in 293T cells (HIV-1)
[5] = molecular target: HIV-1 426c.SM (N276D) Env on Env-pseudotyped virus produced in 293s/GnTI-/- cells (Man5-enrichment) (HIV-1)
[6] = molecular target: CH0505TF Env, Env-pseudotyped virus produced in 293S GnTI- cells (Man5-enriched) (HIV-1)
[7] = molecular target: HIV-1 Env 426c.TM4 (S278R.G471S.N460D.N463D), Env-pseudotyped virus produced in 293S GnTI- cells (Man5-enriched) (HIV-1 clade C strain 426c)
[8] = molecular target: CH0505TF.gly3.276 Env, Env-pseudotyped virus produced in 293S GnTI- cells (Man5-enriched) (HIV-1)
[9] = molecular target: CH0505TF.gly3.461 Env, Env-pseudotyped virus produced in 293S GnTI- cells (Man5-enriched) (HIV-1)
[10] = molecular target: HIV-1 426c.TM (N276D/N460D/N463D) Env on Env-pseudotyped virus produced in 293T cells (HIV-1)
[11] = molecular target: CH0505TF.gly3.461 Env, Env-pseudotyped virus produced in 293T cells (HIV-1)
[12] = molecular target: HIV-1 clade C strain 426c Env on Env-pseudotyped virus produced in 293T cells (HIV-1)
[13] = molecular target: HIV-1 Env 426c.TM4 (S278R.G471S.N460D.N463D), Env-pseudotyped virus produced in 293T cells (HIV-1 clade C strain 426c)
[14] = molecular target: HIV-1 Env 426c.SM (N276D), Env-pseudotyped virus produced in 293S GnTI- cells (Man5-enriched) (HIV-1 clade C strain 426c)
[15] = molecular target: HIV-1 426c.DM (N460D/N463D) Env on Env-pseudotyped virus produced in 293T cells (HIV-1)
[16] = molecular target: HIV-1 Env 426c, Env-pseudotyped virus produced in 293S GnTI- cells (Man5-enriched) (HIV-1 clade C strain 426c)
[17] = molecular target: HIV-1 Env 426c.TM (N276D.N460D.N463D), Env-pseudotyped virus produced in 293T cells (HIV-1 clade C strain 426c)
[18] = molecular target: HIV-1 clade C strain 426c Env on Env-pseudotyped virus produced in 293s/GnTI-/- cells (Man5-enrichment) (HIV-1)
[19] = molecular target: CH0505TF.gly3.197 Env, Env-pseudotyped virus produced in 293S GnTI- cells (Man5-enriched) (HIV-1)
[20] = molecular target: HIV-1 Env 426c.SM (N276D), Env-pseudotyped virus produced in 293T cells (HIV-1 clade C strain 426c)
[21] = molecular target: CH0505TF.gly4 Env, Env-pseudotyped virus produced in 293T cells (HIV-1)
[22] = molecular target: HIV-1 426c.TM (N276D/N460D/N463D) Env on Env-pseudotyped virus produced in 293s/GnTI-/- cells (Man5-enrichment) (HIV-1)
[23] = molecular target: CH0505TF.G458Y Env, Env-pseudotyped virus produced in 293T cells (HIV-1)
[24] = molecular target: CH0505TF.gly3.276 Env, Env-pseudotyped virus produced in 293T cells (HIV-1)
[25] = molecular target: HIV-1 Env 426c.DM (N460D.N463D), Env-pseudotyped virus produced in 293T cells (HIV-1 clade C strain 426c)
[26] = molecular target: CH0505TF.gly3.197 Env, Env-pseudotyped virus produced in 293T cells (HIV-1)
[27] = molecular target: CH0505TF.G458Y Env, Env-pseudotyped virus produced in 293S GnTI- cells (Man5-enriched) (HIV-1)
[28] = molecular target: HIV-1 Env 426c, Env-pseudotyped virus produced in 293T cells (HIV-1 clade C strain 426c)
[29] = molecular target: HIV-1 426c.SM (N276D) Env on Env-pseudotyped virus produced in 293T cells (HIV-1)
[30] = molecular target: HIV-1 Env 426c.TM (N276D.N460D.N463D), Env-pseudotyped virus produced in 293S GnTI- cells (Man5-enriched) (HIV-1 clade C strain 426c)
[31] = molecular target: CH0505TF.gly4 Env, Env-pseudotyped virus produced in 293S GnTI- cells (Man5-enriched) (HIV-1)

Row | Substance | IC50 (µg/ml) in TZM-bl [1] [µg/mL] | IC50 (µg/ml) in TZM-bl [2] [µg/mL] | ID50/IC50 in TZM-bl [3] [µg/mL] | IC50 (µg/ml) in TZM-bl [4] [µg/mL] | ID50/IC50 in TZM-bl [5] [µg/mL] | IC50 (µg/ml) in TZM-bl [6] [µg/mL] | IC50 (µg/ml) in TZM-bl [7] [µg/mL] | IC50 (µg/ml) in TZM-bl [8] [µg/mL] | IC50 (µg/ml) in TZM-bl [9] [µg/mL] | ID50/IC50 in TZM-bl [10] [µg/mL] | IC50 (µg/ml) in TZM-bl [11] [µg/mL] | ID50/IC50 in TZM-bl [12] [µg/mL] | IC50 (µg/ml) in TZM-bl [13] [µg/mL] | IC50 (µg/ml) in TZM-bl [14] [µg/mL] | ID50/IC50 in TZM-bl [15] [µg/mL] | IC50 (µg/ml) in TZM-bl [16] [µg/mL] | IC50 (µg/ml) in TZM-bl [17] [µg/mL] | ID50/IC50 in TZM-bl [18] [µg/mL] | IC50 (µg/ml) in TZM-bl [19] [µg/mL] | IC50 (µg/ml) in TZM-bl [20] [µg/mL] | other results
1 | 4E10 (antibody) | 22 | 3.7 | 3.7 | > 50 | 3.8 | 10 | 1.6 | 13 | 12 | 0.98 | 16 | 3.32 | 1.66 | 3.8 | 1 | 4 | 0.98 | 4 | 14 | 1.52 | IC50 (µg/ml) in TZM-bl [21]: 14 µg/mL; ID50/IC50 in TZM-bl [22]: 4 µg/mL; IC50 (µg/ml) in TZM-bl [23]: 8 µg/mL; IC50 (µg/ml) in TZM-bl [24]: 17 µg/mL; IC50 (µg/ml) in TZM-bl [25]: 1 µg/mL; IC50 (µg/ml) in TZM-bl [26]: 21 µg/mL; IC50 (µg/ml) in TZM-bl [27]: 10 µg/mL; IC50 (µg/ml) in TZM-bl [28]: 3.32 µg/mL; ID50/IC50 in TZM-bl [29]: 1.52 µg/mL; IC50 (µg/ml) in TZM-bl [30]: 4 µg/mL; IC50 (µg/ml) in TZM-bl [31]: 12.3 µg/mL
2 | 10-1074 (antibody) | > 25 | 0.03 | 0.03 | > 25 | 0.04 | > 25 | 0.02 | > 25 | > 25 | 0.16 | > 25 | 0.05 | 0.06 | 0.04 | 0.1 | 0.03 | 0.16 | 0.03 | > 25 | 0.12 | IC50 (µg/ml) in TZM-bl [21]: > 25 µg/mL; ID50/IC50 in TZM-bl [22]: 0.03 µg/mL; IC50 (µg/ml) in TZM-bl [23]: > 25 µg/mL; IC50 (µg/ml) in TZM-bl [24]: > 25 µg/mL; IC50 (µg/ml) in TZM-bl [25]: 0.1 µg/mL; IC50 (µg/ml) in TZM-bl [26]: > 25 µg/mL; IC50 (µg/ml) in TZM-bl [27]: > 25 µg/mL; IC50 (µg/ml) in TZM-bl [28]: 0.05 µg/mL; ID50/IC50 in TZM-bl [29]: 0.12 µg/mL; IC50 (µg/ml) in TZM-bl [30]: 0.03 µg/mL; IC50 (µg/ml) in TZM-bl [31]: > 25 µg/mL
3 | 2219 (antibody) | > 25 | > 25 | > 25 | > 25 | > 25 | > 25 | > 25 | > 25 | > 25 | > 25 | > 25 | > 25 | > 25 | > 25 | > 25 | > 25 | > 25 | > 25 | > 25 | > 25 | IC50 (µg/ml) in TZM-bl [21]: > 25 µg/mL; ID50/IC50 in TZM-bl [22]: > 25 µg/mL; IC50 (µg/ml) in TZM-bl [23]: > 25 µg/mL; IC50 (µg/ml) in TZM-bl [24]: > 25 µg/mL; IC50 (µg/ml) in TZM-bl [25]: > 25 µg/mL; IC50 (µg/ml) in TZM-bl [26]: > 25 µg/mL; IC50 (µg/ml) in TZM-bl [27]: > 25 µg/mL; IC50 (µg/ml) in TZM-bl [28]: > 25 µg/mL; ID50/IC50 in TZM-bl [29]: > 25 µg/mL; IC50 (µg/ml) in TZM-bl [30]: > 25 µg/mL; IC50 (µg/ml) in TZM-bl [31]: > 25 µg/mL
4 | 2557 (antibody) | > 25 | > 25 | > 25 | > 25 | > 25 | > 25 | > 25 | > 25 | > 25 | > 25 | > 25 | > 25 | > 25 | > 25 | > 25 | > 25 | > 25 | > 25 | > 25 | > 25 | IC50 (µg/ml) in TZM-bl [21]: > 25 µg/mL; ID50/IC50 in TZM-bl [22]: > 25 µg/mL; IC50 (µg/ml) in TZM-bl [23]: > 25 µg/mL; IC50 (µg/ml) in TZM-bl [24]: > 25 µg/mL; IC50 (µg/ml) in TZM-bl [25]: > 25 µg/mL; IC50 (µg/ml) in TZM-bl [26]: > 25 µg/mL; IC50 (µg/ml) in TZM-bl [27]: > 25 µg/mL; IC50 (µg/ml) in TZM-bl [28]: > 25 µg/mL; ID50/IC50 in TZM-bl [29]: > 25 µg/mL; IC50 (µg/ml) in TZM-bl [30]: > 25 µg/mL; IC50 (µg/ml) in TZM-bl [31]: > 25 µg/mL
5 | 3074 (antibody) | > 25 | > 25 | > 25 | 0.02 | 23 | > 25 | > 25 | 4.8 | 10.2 | > 25 | 7.3 | > 25 | > 25 | 23 | > 25 | > 25 | > 25 | > 25 | > 25 | > 25 | IC50 (µg/ml) in TZM-bl [21]: 7.2 µg/mL; ID50/IC50 in TZM-bl [22]: > 25 µg/mL; IC50 (µg/ml) in TZM-bl [23]: 9.4 µg/mL; IC50 (µg/ml) in TZM-bl [24]: 14.1 µg/mL; IC50 (µg/ml) in TZM-bl [25]: > 25 µg/mL; IC50 (µg/ml) in TZM-bl [26]: > 25 µg/mL; IC50 (µg/ml) in TZM-bl [27]: > 25 µg/mL; IC50 (µg/ml) in TZM-bl [28]: > 25 µg/mL; ID50/IC50 in TZM-bl [29]: > 25 µg/mL; IC50 (µg/ml) in TZM-bl [30]: > 25 µg/mL; IC50 (µg/ml) in TZM-bl [31]: 5.6 µg/mL
6 | 3869 (antibody) | > 25 | > 25 | > 25 | 3.1 | > 25 | > 25 | > 25 | > 25 | > 25 | > 25 | > 25 | > 25 | > 25 | > 25 | > 25 | > 25 | > 25 | > 25 | > 25 | > 25 | IC50 (µg/ml) in TZM-bl [21]: > 25 µg/mL; ID50/IC50 in TZM-bl [22]: > 25 µg/mL; IC50 (µg/ml) in TZM-bl [23]: > 25 µg/mL; IC50 (µg/ml) in TZM-bl [24]: > 25 µg/mL; IC50 (µg/ml) in TZM-bl [25]: > 25 µg/mL; IC50 (µg/ml) in TZM-bl [26]: > 25 µg/mL; IC50 (µg/ml) in TZM-bl [27]: > 25 µg/mL; IC50 (µg/ml) in TZM-bl [28]: > 25 µg/mL; ID50/IC50 in TZM-bl [29]: > 25 µg/mL; IC50 (µg/ml) in TZM-bl [30]: > 25 µg/mL; IC50 (µg/ml) in TZM-bl [31]: > 25 µg/mL
